# T1: human MerTK extracellular domain (ECD), recombinant (human, UniProt Q12866 21-505)
# T1 construct: also called huMerTK; not shown: polyHis tag or TEVS/Thrombin/murine IgG2a Fc tag
# T1 sequence: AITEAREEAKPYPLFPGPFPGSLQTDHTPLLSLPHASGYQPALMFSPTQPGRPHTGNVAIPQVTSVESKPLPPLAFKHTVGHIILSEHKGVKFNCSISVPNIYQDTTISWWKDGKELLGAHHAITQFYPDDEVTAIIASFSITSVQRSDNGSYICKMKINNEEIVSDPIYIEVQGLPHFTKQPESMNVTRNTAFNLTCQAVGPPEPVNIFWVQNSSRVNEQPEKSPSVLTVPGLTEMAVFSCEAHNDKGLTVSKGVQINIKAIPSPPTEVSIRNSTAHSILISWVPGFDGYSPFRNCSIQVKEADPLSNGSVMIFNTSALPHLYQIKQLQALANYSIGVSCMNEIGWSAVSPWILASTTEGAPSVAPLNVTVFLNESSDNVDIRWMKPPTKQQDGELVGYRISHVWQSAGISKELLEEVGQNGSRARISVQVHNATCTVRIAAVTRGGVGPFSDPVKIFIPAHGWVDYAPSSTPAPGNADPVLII
# T2: cyno MerTK extracellular domain (ECD), recombinant (cynomolgus monkey, UniProt Q12866 21-505 (human entry))
# T2 construct: also called cynomolgus MerTK; not shown: polyHis tag or TEVS/Thrombin/murine IgG2a Fc tag
# T2 chain: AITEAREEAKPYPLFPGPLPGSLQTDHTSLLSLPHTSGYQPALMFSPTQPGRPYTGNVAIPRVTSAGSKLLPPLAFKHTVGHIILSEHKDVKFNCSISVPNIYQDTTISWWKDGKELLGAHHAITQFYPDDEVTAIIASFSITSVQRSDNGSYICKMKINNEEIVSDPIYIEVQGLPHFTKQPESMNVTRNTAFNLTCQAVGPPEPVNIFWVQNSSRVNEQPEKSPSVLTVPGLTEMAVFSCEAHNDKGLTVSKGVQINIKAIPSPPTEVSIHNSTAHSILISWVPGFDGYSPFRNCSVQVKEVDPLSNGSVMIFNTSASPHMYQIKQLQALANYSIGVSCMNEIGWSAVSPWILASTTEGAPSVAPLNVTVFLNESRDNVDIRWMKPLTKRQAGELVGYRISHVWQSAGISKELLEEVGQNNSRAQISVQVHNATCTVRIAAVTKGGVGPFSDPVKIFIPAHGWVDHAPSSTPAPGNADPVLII
# T3: murine MerTK extracellular domain (ECD), recombinant (mouse, UniProt Q60805 19-497)
# T3 construct: also called moMerTK; mouse MerTK; not shown: polyHis tag or TEVS/Thrombin/murine IgG2a Fc tag
# T3 sequence: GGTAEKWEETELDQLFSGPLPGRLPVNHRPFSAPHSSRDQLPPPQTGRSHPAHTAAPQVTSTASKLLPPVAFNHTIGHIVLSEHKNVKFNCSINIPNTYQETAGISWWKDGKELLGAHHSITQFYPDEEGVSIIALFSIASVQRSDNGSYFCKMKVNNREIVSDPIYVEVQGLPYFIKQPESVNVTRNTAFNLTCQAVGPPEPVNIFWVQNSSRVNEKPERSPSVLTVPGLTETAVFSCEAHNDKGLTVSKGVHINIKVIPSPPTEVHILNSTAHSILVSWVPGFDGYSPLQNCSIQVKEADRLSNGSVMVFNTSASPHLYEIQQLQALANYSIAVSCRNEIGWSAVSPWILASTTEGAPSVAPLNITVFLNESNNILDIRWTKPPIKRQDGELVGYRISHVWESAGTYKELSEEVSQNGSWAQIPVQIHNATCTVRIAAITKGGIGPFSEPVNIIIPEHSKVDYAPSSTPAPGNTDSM
# Tests used:
# Assay in all cases: SPR, Carterra LSA, antibody immobilised
# [1] = target: T1, human MerTK extracellular domain (ECD), …
# Method: (§1) Binding kinetics of humanized and affinity-matured anti-MerTK antibodies of the present disclosure to human, murine, and cynomolgus MerTK proteins were evaluated as follows. Briefly, anti-MerTK antibodies were prepared by diluting to 10 μg/ml in 10 mM Acetate, pH 4.25 (Carterra, Salt Lake City, Utah), at 300 μl/well. A HC200M sensor chip (Carterra) was activated using the single channel flow cell with a 7-minute injection of a 1:1:1 mixture of 100 mM MES pH 5.5, 100 mM sulfo-NHS, 400 mM EDC (all reconstituted in MES pH 5.5; 100 μl of each mixed in vial immediately before running assay). After switching to the multi-channel array flow cell, the antibodies were injected over the activated chip in a 96-spot array for 15 minutes. The remaining unconjugated active groups on the chip were then blocked by injecting 1M Ethanolamine pH 8.5 (Carterra) for 7 minutes using the single channel flow cell.
# (§2) Estimates of affinity were generated by injecting each analyte over the entire antibody array using the single channel flow cell. MerTK analytes were diluted to 33.3, 100, and 300 nM in running buffer, and injected in serial from lowest to highest concentration without regeneration. Two buffer blanks were run between each series (one species per series). Data were processed and analyzed using NextGenKIT high-throughput kinetics analysis software (Carterra). In these experiments, the anti-MerTK antibodies were human IgG1 isotype containing the Fc variant LALAPS.
# (§3) The equilibrium dissociation constants (KD) were then calculated from the fitted association and dissociation rate constants (k-on and k-off) for anti-MerTK antibodies of the present disclosure.
# [2] = target: T2, cyno MerTK extracellular domain (ECD), …
# Method: as §1, §2, §3
# [3] = target: T3, murine MerTK extracellular domain …
# Method: as §1, §2, §3
Binder,Kd [1],Kd [2],binding result [3],Kd [3]
"MTK-29.10 (antibody, human IgG1, V domains shown) VH: QVQLVQSGSELKKPGASVKVSCKTSSYTFTTYGMSWVRQAPGQGLEWMGWINTYSGVPTYTDDFKGRFVFSLDTSVSTAYLQISSLKAEDTAVYYCARYTNYGVFDYWGQGTLVTVSS VL: EIVLTQSPATLSLSPGERATLSCRASSSVGYMHWYQQKPGQAPRLLIYATSNLASGIPARFSGSGSGTDFTLTISRLEPEDFAVYYCQQWGSLPFTFGGGTKLEIK",4.5 nM,4.2 nM,–,116 nM
"MTK-29.17 (antibody, human IgG1, V domains shown) VH: QVQLVQSGSELKKPGASVKVSCKASGYIFTSYGLSWVRQAPGQGLEWMGWINTYSGVPTYAQGFTGRFVFSLDTSVSTAYLQISSLKAEDTAVYYCARYTNYGVFDYWGQGTLVTVSS VL: DIQLTQSPSFLSASVGDRVTITCRSSSSVGYMHWYQQKPGKAPKLLIYATSNLAQGVPSRFSGSGSGTEFTLTISSLQPEDFATYYCQQWGSLPFTFGQGTKLEIK",9.6 nM,9.9 nM,–,170 nM
"MTK-33.13 (antibody, human IgG1, V domains shown) VH: QVQLVQSGAEVKKPGASVKVSCKASGYTFTSYWMHWVRQAPGQGLEWIGVIDPSDNYINYNQKFQGRVTMTRDTSTSTVYMELSSLRSEDTAVYYCAREAGTRGYFDYWGQGTLVTVSS VL: DIQMTQSPSSLSASVGDRVTITCQASRSVSNTVAWYQQKPGKAPKLLIYYASNRYTGVPSRFSGSGSGTDFTFTISSLQPEDIATYYCQQDYRSPFTFGQGTKLEIK",20 nM,18 nM,–,225 nM
"MTK-33.11 (antibody, human IgG1, V domains shown) VH: QVQLVQSGAEVKKPGASVKVSCKASGYTFTSYWMHWVRQAPGQGLEWIGVIDPSDNYINYNQKFQGRVTMTRDTSTSTVYMELSSLRSEDTAVYYCAREAWTRGYFDYWGQGTLVTVSS VL: DIQMTQSPSSLSASVGDRVTITCQASRSVRNTVAWYQQKPGKAPKLLIYYASNRYTGVPSRFSGSGSGTDFTFTISSLQPEDIATYYCQQDYRSPFTFGQGTKLEIK",11 nM,10.1 nM,–,115 nM
"MTK-33.8 (antibody, human IgG1, V domains shown) VH: QVQLVQSGAEVKKPGASVKVSCKASGYTFTSYWMHWVRQAPGQGLEWIGVIDPSDNYINYNQKFQGRVTMTRDTSTSTVYMELSSLRSEDTAVYYCAREAWTRGYFNYWGQGTLVTVSS VL: DIQMTQSPSSLSASVGDRVTITCQASQSVSRTVAWYQQKPGKAPKLLIYYASNRYTGVPSRFSGSGSGTDFTFTISSLQPEDIATYYCQQDYRSPFTFGQGTKLEIK",41 nM,41 nM,–,465 nM
"MTK-33.10 (antibody, V domains shown) VH: QVQLVQSGAEVKKPGASVKVSCKASSYSFTSYWMHWVRQAPGQGLEWIGVIDPSDNYINYNQKFRGRVTMTRDTSTSTVYMELSSLRSEDTAVYYCAREAGTRGYFDYWGQGTLVTVSS VL: DIQMTQSPSSLSASVGDRVTITCQAGQSVSNTVAWYQQKPGKAPKLLIYYASNRYTGVPSRFSGSGSGTDFTFTISSLQPEDIATYYCQQDYRSPFTFGQGTKLEIK",41 nM,38 nM,–,150 nM
"MTK-33.5 (antibody, human IgG1, V domains shown) VH: QVQLVQSGAEVKKPGASVKVSCMASGYTFGSYWMHWVRQAPGQGLEWIGVIDPSDNYINYNQKFQGRVTMTRDTSTSTVYMELSSLRSEDTAVYYCAREAGTRGYFDYWGQGTLVTVSS VL: DIQMTQSPSSLSASVGDRVTITCQASQSVSNTVAWYQQKPGKAPKLLIYYASNRETGVPSRFSGSGSGTDFTFTISSLQPEDIGTYYCQQDYRSPFTFGQGTKLEIK",28 nM,26 nM,–,140 nM
"MTK-33.7 (antibody, human IgG1, V domains shown) VH: QVQLVQSGAEVKKPGASVKVSCKASGYTFTSYWMHWVRQAPGQGLEWIGVIDPSDNYINYNAKFQGRVTMTRDTSTSTVYMELSSLRSEDTAVYYCAREAGTRGYFDYWGQGTLVTVSS VL: DIQMTQSPSSLSASVGDRVTITCGASQSVSNTVAWYQQKPGKAPKLLIYYASNRYTGVPSRFSGSGSGTDFTFTISSLQPEDIATYYCQQDYRSPFTFGQGTKLEIK",78 nM,78 nM,–,800 nM

# The next lines start with the values.
Kd [1],Kd [2],binding result [3],Kd [3],Binder
7.4 nM,8.4 nM,no binding (tested: 300 nM),–,"MTK-29.15 (antibody, human IgG1, V domains shown) VH: QVQLVQSGSELKKPGASVKVSCKASSYTFTTYGMSWVRQAPGQGLEWMGWINTMSGVPTYTDDFKGRFVFSLDTSVSTAYLQISSLKAEDTAVYYCARYTNYGVFDYWGQGTLVTVSS VL: DIQLTQSPSFPSASVGDRVTITCRASSSVGYMHWYQQKPGKAPKLLIYATSNLAQGVPSRFSGSGSGTEFTLTISSLQPEDFATYYCQQWGSLPFTFGQGTKLEIK"
4.7 nM,4.9 nM,–,140 nM,"MTK-29.18 (antibody, human IgG1, V domains shown) VH: QVQLVQSGSELKKPGASVKVSCKASGYIFTSYGLSWVRQAPGQGLEWMGWVNTYSGVPTYTDDFKGRFVFSLDTSVSTAYLQISSLKAEDTAVYYCARYTNYGVFDYWGQGTLVTVSS VL: EIVLTQSPATLSLSPGERATLSCRASSTVGYMHWYQQKPGQAPRLLIYATSNLASGIPARFSGSGSGTDFTLTISRLEPEDFAVYYCQQWGSLPFTFGGGTKLEIK"
2.1 nM,2.4 nM,–,59 nM,"MTK-29.11 (antibody, human IgG1, V domains shown) VH: QVQLVQSGSELKKPGASVKVSCKASSYTFTTYGMSWVRQAPGQGLEWMGWINTDSGVPTYTDDFKGRFVFSLDTSVSTAYLQISSLKAEDTAVYYCARYTNYGVFDYWGQGTLVTVSS VL: EIVLTQSPATLSLSPGERATLSCRASSSVGYMHWYQQKPGQAPRLLIYATSNLASGIPARFSGSGSGTDFTLTISRLEPEDFAVYYCQQWGSLPFTFGGGTKLEIK"
8.6 nM,8.8 nM,–,205 nM,"MTK-29.16 (antibody, human IgG1, V domains shown) VH: QVQLVQSGSELKKPGASVKVSCKASGYIFTSYGLSWVRQAPGQGLEWMGWVNTYSGVPTYTDDFKGRFVFSLDTSVSTAYLQISSLKAEDTAVYYCARYTNYGVFDYWGQGTLVTVSS VL: DIQLTQSPSFLSASVGDRVTITCRASSSVGYMHWYQQKPGKAPKLLIYATSNLAQGVPSRFSGSGSGTEFTLTISSLQPEDFATYYCQQWGRLPFTFGQGTKLEIK"
8.6 nM,7.9 nM,–,230 nM,"MTK-33.12 (antibody, V domains shown) VH: QVQLVQSGAEVKKPGASVKVSCKASGYTFVSYWMHWVRQAPGQGLEWIGVIDPSDNYINYNQKFRGRVTMTRDTSTSTVYMELSSLRSEDTAVYYCAREAGTRGYFDYWGQGTLVTVSS VL: DIQMTQSPSSLSASVGDRVTITCQASQSVSNTVAWYQQKPGKAPKLLIYYASNRYTGVPSRFSGSGSGTDFTFTISSLQPEDIATYYCRQDTRSPFTFGQGTKLELK"

# From patent publication US20210261685A1 (Alector, published 2021)
